Measurements: US20230340119A1 (ARBELE, published 2023)
Positions count from the first letter of the chain named. Several values for one entry are separate records, joined by “and”; a condition that tells them apart may be missing. Identical values can stand only once.

B1: h10Ta-wt (bispecific antibody)
light: DIQMTQSPSSLSASVGDRVTITCRASQDIRNYLNWYQQKPGKAPKLLIYYTSRLESGVPSRFSGSGSGTDYTLTISSLQPEDFATYYCQQGNTLPWTFGQGTKVEIKGAPGGGTHTCPPCPAPELLGGPSVFLFPPKPKDTLMISRTPEVTCVVVDVSQEDPEVQFNWYVDGVEVHNAKTKPREEQFNSTYRVVSVLTVLHQDWLNGKEYKCKVSNKGLPSSIEKTISKAKGQPREPQVYTLPPSREEMTKNQVSLSCAVKGFYPSDIAVEWESNGQPENNYKTTPPVLDSDGSFFLVSKLTVDKSRWQQGNVFSCSVMHEALHNHYTQKSLSLSPGK
heavy: EVQLLESGGGLVQPGGSLRLSCAASGFTFSSYAMSWVRQAPGKGLEWVAVIDSNGGSTYYPDTVKDRFTISRDNSKNTLYLQMNSLRAEDTAVYYCSSYTNLGAYWGQGTLVTVSAGGGGSGGGGSGGGGSDIQMTQSPSSLSASVGDRVTITCRASQDISGYLNWLQQKPGKAIKRLIYTTSTLDSGVPSRFSGSGSGTDFTLTISSLQPEDFATYYCLQYASSPFTFGGGTKVEIKPAGGGGGSEVQLVESGGGLVQPGGSLRLSCAASGYSFTGYTMNWVRQAPGKGLEWVALINPYKGVSTYNQKFKDRFTISVDKSKNTAYLQMNSLRAEDTAVYYCARSGYYGDSDWYFDVWGQGTLVTVSSGAPGGGTHTCPPCPAPELLGGPSVFLFPPKPKDTLMISRTPEVTCVVVDVSQEDPEVQFNWYVDGVEVHNAKTKPREEQFNSTYRVVSVLTVLHQDWLNGKEYKCKVSNKGLPSSIEKTISKAKGQPREPQVYTLPPSREEMTKNQVSLWCLVKGFYPSDIAVEWESNGQPENNYKTTPPVLDSDGSFFLYSKLTVDKSRWQQGNVFSCSVMHEALHNHYTQKSLSLSPGK
notes: also called h10Ta with the parental Fv; h10Ta (wt anti-CD3 Fv)
B2: hB2Ta (bispecific antibody)
light: B1 light with R24Q, R30S
heavy: QVQLVQSGAEVKKPGASVKVSCKASGYSFTDYTMNWVRQAPGQGLEWMGVINPNHGISSYAQKFQGRVTMTRDTSTSTVYMELSSLRSEDTAVYYCVRRKISYDYDEGYAMDYWGQGTLVTVSSGGGGSGGGGSGGGGSDIVMTQSPDSLAVSLGERATINCKSSQNLLNSSNQKNYLAWYQQKPGQPPKLLVFFAATRESGVPDRFSGSGSGTDFTLTISSLQAEDVAVYYCQQHYSTPWTFGGGTKLEIKPAGGGGSEVQLVESGGGLVQPGGSLRLSCAASGYSFTGYTMNWVRQAPGKGLEWVALINPYKGVSTYNQKFKDRFTISVDKSKNTAYLQMNSLRAEDTAVYYCARSGYYGDSDWYFDVWGQGTLVTVSSGAPGGGTHTCPPCPAPELLGGPSVFLFPPKPKDTLMISRTPEVTCVVVDVSQEDPEVQFNWYVDGVEVHNAKTKPREEQFNSTYRVVSVLTVLHQDWLNGKEYKCKVSNKGLPSSIEKTISKAKGQPREPQVYTLPPSREEMTKNQVSLWCLVKGFYPSDIAVEWESNGQPENNYKTTPPVLDSDGSFFLYSKLTVDKSRWQQGNVFSCSVMHEALHNHYTQKSLSLSPGK
B3: h10Ta-L4 (bispecific antibody)
light: B1 light with R24Q, R30S
heavy: B1 heavy
notes: also called TriAx-A harboring L4

Columns and labels:
CD3 on T cells [1] = target: T1, CD3 on T cells (UniProt P07766 23-207); experiment: cell-based or functional assay
CD3 on T cells [2] = target: T1, CD3 on T cells; experiment: cell-based or functional assay; remark: listed apart in the source
CD3 on T cells [3] = target: T1, CD3 on T cells; experiment: flow cytofluorimetry on peripheral blood T cells, fit of Median FI against concentration; one of three independent determinations
Method: (§1) The antibody binding to peripheral blood T cells was determined for T cell affinity over a range of concentration as shown in FIG. 8A. MFI were plotted and affinity (EC50) was determined using GraphPad PRISM. Three independent affinity determinations and their averages were indicated. […] Both h10Ta antibodies engaged CDH17 (on DLD1) and CD3. The signaling was determined according to manufacturer's protocol, at 24 hours using an antibody concentration range as indicated and Jurkat reporter cells at 100×10³ and DLD1 cells at 30×10³ per microtiter well (96-well plate). Luciferase expression/activity was measured using a multimode plate reader. […] Controls included no antibody or a CD3, CD28, CD2 agonist (Immunocult; StemCell) to induce maximal stimulation.

CD3 on T cells [4] = target: T1, CD3 on T cells; experiment: flow cytofluorimetry on peripheral blood T cells, EC50 from MFI, average of three determinations; h10Ta-wt, parental Fv Vk CDR1
Method: as §1

[5] = target: T2, Fibroblast activation protein alpha (FAP) on DLD1-FAP cells (UniProt Q12884 1-760, limits assumed); experiment: cell-based or functional assay
T2 sequence (looked up): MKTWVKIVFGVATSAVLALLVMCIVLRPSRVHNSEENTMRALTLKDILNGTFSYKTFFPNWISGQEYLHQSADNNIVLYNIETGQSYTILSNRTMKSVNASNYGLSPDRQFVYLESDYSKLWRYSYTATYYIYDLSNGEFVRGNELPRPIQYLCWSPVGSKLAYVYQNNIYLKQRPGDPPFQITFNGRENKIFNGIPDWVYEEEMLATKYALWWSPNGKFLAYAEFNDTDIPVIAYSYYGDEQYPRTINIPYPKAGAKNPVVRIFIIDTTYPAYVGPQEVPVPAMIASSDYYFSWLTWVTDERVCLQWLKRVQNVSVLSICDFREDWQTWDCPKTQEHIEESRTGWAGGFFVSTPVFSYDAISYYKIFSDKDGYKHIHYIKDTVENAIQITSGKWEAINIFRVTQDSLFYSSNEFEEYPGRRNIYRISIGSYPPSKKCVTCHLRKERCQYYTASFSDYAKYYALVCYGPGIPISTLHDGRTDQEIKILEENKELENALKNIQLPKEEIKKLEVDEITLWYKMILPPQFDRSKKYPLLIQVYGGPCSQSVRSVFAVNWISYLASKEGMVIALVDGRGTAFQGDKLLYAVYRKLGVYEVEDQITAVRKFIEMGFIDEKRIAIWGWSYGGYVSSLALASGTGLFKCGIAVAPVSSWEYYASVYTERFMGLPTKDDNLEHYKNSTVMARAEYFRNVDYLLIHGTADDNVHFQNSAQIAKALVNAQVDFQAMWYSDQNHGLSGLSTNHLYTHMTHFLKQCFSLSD

CD3 on T cells [6] = target: T1, CD3 on T cells; experiment: flow cytofluorimetry on peripheral blood T cells
Method: as §1

CD3 on T cells [7] = target: T1, CD3 on T cells; experiment: flow cytofluorimetry on peripheral blood T cells, EC50 from MFI, average of three determinations; h10Ta-L4, modified CDRL1
Method: as §1

T1 sequence (P07766 23-207): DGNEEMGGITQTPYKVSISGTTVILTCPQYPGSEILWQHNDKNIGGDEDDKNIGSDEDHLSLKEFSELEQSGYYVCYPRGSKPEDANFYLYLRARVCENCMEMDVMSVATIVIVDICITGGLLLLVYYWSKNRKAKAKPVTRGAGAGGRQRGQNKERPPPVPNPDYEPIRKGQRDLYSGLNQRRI

| Binder | EC50 for AGS killing in the presence of T cells, 24 hours, E:T 4 (CD3 on T cells [1]) [nM] | EC50 for killing DLD1 in the presence of T cells, 24 hours, E:T 4 (CD3 on T cells [1]) [nM] | EC50 (read off the curve), NFAT-luciferase induction in Jurkat reporter cells with DLD1 cells (CD3 on T cells [2]) [nM] | Kd (CD3 on T cells [3]) | EC50 (CD3 on T cells [4]) [nM] | EC50 of tumor cell cytotoxicity, DLD1-FAP cells with T cells, 24 hours, E:T 4 [5] [nM] | fold decrease in T cell signaling, NFAT luciferase Jurkat reporter cells with DLD1 cells, 24 hours (CD3 on T cells [1]) [fold] | fold decrease in T cell affinity relative to the parental Fv (h10Ta-wt) (CD3 on T cells [6]) [fold] | EC50 (CD3 on T cells [7]) [nM] |
| --- | --- | --- | --- | --- | --- | --- | --- | --- | --- |
| B1 | 0.0014 | 0.0005 | ~0.4 | 50 nM and 54 nM and 75 nM | 60 | – | – | – | – |
| B2 | – | – | – | – | – | 0.041 | – | – | – |
| B3 | 0.002 | 0.0004 | ~0.8 | 236 nM and 358 nM and 365 nM | – | – | 2 | 5 | 320 |
